The source of these data is patent US20250026841A1 (AP BIOSCIENCES, published 2025).

Numbering of substitutions follows the chain as printed. Names and notes keep the numbering of the source. Read-outs that look alike come from different tables or passages of the source.

Assay [1] has as its target T1, CD73, cell membrane-bound (expressed by MDA-MB-231 cells) (human, UniProt P21589 27-549).
T1 construct: whole, on cells; also called CD73-expressing MDA-MB-231 breast cancer cells
T1 sequence (looked up): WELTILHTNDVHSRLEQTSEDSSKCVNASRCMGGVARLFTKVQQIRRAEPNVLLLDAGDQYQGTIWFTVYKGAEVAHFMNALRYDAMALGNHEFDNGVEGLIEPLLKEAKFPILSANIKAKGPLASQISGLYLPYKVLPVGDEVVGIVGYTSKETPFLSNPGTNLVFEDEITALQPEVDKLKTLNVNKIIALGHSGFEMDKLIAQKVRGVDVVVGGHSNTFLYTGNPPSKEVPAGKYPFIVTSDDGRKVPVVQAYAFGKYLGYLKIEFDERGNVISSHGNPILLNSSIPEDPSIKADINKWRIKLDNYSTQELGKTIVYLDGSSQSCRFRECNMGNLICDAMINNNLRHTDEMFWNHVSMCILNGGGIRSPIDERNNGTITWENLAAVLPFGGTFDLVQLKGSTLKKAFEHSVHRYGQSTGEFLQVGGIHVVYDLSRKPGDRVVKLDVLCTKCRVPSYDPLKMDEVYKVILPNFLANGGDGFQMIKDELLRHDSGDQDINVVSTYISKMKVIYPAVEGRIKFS
As to the kind of experiment: flow cytometry, antibody 4 µg/ml on MDA-MB-231 cells, A488 anti-human IgG. The protocol:
As illustrated in FIG. 15 the binding activity of anti-CD73 antibody leads was assessed by flow cytometer. MDA-MB-231 cells (1×10^5 cells) were surface stained with anti-CD73 antibody (4 μg/ml) for 30 minutes, then incubated with A488-conjugated anti-human IgG secondary antibody for 15 minutes on ice. Cells were analyzed by flow cytometer, and A488 fluorescence intensity was shown by histograms (left) and number (right table). As illustrated in FIG. 16 the blockade of CD73 enzymatic activity by anti-CD73 antibody leads was assessed. The enzymatic activity of CD73 expressed by MDA-MB-231 on the cell surface was blocked by anti-CD73 antibody leads.
A general note: Flow cytometry measures light scatter and fluorescence of single cells or particles in a stream.

Assay [2] has as its target T2, CD73 (antigen of the CD73 ELISA) (UniProt P21589 27-547, limits assumed).
T2 construct: the ELISA antigen is not described
T2 sequence (looked up): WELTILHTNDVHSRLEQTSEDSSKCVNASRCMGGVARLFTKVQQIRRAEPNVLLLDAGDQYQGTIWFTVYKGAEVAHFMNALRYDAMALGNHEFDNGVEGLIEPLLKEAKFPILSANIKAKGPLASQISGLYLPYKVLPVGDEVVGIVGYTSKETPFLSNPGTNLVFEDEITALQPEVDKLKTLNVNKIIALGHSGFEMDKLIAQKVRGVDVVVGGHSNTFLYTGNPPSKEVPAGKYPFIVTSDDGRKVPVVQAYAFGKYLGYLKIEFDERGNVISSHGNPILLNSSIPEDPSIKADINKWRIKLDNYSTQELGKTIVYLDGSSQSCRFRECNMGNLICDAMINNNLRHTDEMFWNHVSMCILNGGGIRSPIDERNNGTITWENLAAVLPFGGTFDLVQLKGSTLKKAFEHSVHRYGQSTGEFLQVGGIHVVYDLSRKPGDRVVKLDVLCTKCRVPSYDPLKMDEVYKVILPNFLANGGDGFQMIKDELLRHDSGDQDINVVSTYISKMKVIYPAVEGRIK
As to the kind of experiment: phage ELISA on coated CD73-flag-HIS; X-flag-HIS control bars not seen above the axis. Background: In an ELISA, binding on a coated surface is turned into a signal by an enzyme label.

Assay [3] has as its target T3, mouse Fc tagged human CD137 protein (AcroBiosystems, Cat #41B-H5256) (human, UniProt Q07011 24-186).
T3 construct: extracellular domain; Bought protein; also called CD137 extracellular domain fused with mouse Fc tag recombinant protein; human CD137 antigen
As to the kind of experiment: BLI (Octet), biotinylated p95 peptide on SA sensor, antibody 100 nM, then CD137-mFc 100 nM. On the procedure: The binding activities of anti-p95HER2-CD137 bispecific antibody was determined by ForteBIO® (Menlo Park, Calif.) biosensor analysis. In this method, the custom synthesis biotinylated Her2 p95 peptide (GenScript) was loaded onto SA (Streptavidin, ForteBIO, Cat #18-5019) biosensor at 50 μg/mL for 5 minutes. Sensors then were exposed to antibody samples at 100 nM for 5 minutes follow by associating with the mouse Fc tagged human CD137 protein (AcroBiosystems, Cat #41B-H5256) at 100 nM for 5 minutes. The binding chart were produced by Octet Data Acquisition and Analysis Software.
In general terms: BLI is a label-free optical method that tracks binding on a fibre tip over time.

The target of assay [4] is T1, CD73, cell membrane-bound (expressed by …). Nature of the assay: cell-based or functional assay.
Assay [5] has as its target T4, soluble CD73 secreted by MDA-MB-231 cells (human, UniProt P21589 27-549, limits assumed).
T4 sequence (looked up): T1 sequence (looked up)
Nature of the assay: cell-based or functional assay.

The target of assay [6] is T3, mouse Fc tagged human CD137 protein …. Nature of the assay: BLI (Octet), hCD73-His on HIS1K sensor, antibody 100 nM, then CD137-mFc 100 nM. The protocol: The binding activities of the AP601 was determined by ForteBIO® (Menlo Park, Calif.) biosensor analysis. In this method, the His tagged human CD73 protein (AcroBiosystems, Cat. No. CD3-H52H7) were loaded onto HIS1K (Anti-Penta-HIS) biosensor (Cat. No. 18-5120) at 5 μg/mL for 5 minutes. Sensors then were exposed to antibody samples at 100 nM for 5 minutes follow by associating with the mouse Fc tagged human CD137 protein (AcroBiosystems, Cat. No. 41B-H5256) at 100 nM for 5 minutes. The binding chart were produced by Octet Data Acquisition and Analysis Software.

Assay [7] has as its target T5, his-tagged human CD73 (AcroBiosystems, Cat. No. CD3-H52H7) (human, UniProt P21589 27-547).
T5 construct: Bought protein; also called hCD73-His; human CD73 antigen; not shown: His tag
T5 sequence (looked up): T2 sequence (looked up)
As to the kind of experiment: BLI (Octet), antibody on AHC sensor, hCD73-His 2-fold from 30 nM, 7 points. The protocol:
(§1) The affinity of anti-CD73 mAbs and bsAbs were determined by biolayer interferometry analysis (ForteBIO, USA). In this method, anti-CD73 antibodies were loaded at 5 μg/mL on AHC (Anti-Human IgG Fc Capture, ForteBIO, Cat. No. 18-5060) for signal reach to approximate 0.5 nm. Sensors then were exposed to his-tagged human CD73 (AcroBiosystems, Cat. No. CD3-H52H7)-containing solutions that 2-fold serial diluted from the top concentration 30 nM for total 7 points. Measurements were performed as follows: 1 minute baseline in kinetic buffer, 5 minutes association in hCD73-His-containing solutions, and 5 minutes dissociation into kinetic buffer. The kinetic parameters were calculated and produced by Octet Data Acquisition and Analysis Software.

The target of assay [8] is T5, his-tagged human CD73 (AcroBiosystems, …). Nature of the assay: biolayer interferometry; antibody captured on AHC sensor, hCD73-His as analyte. On the procedure:
as §1

For assay [9], the target named is T2, CD73 (antigen of the CD73 ELISA). As to the kind of experiment: phage ELISA on coated CD73-flag-HIS; X-flag-HIS control bars not seen above the axis. This is another data set of the same source.

B1: CR3-16 (antibody, IgG1, V domains shown)
VH: QVQLVQSGAEVKKPGASVKVSCKASGYTFTDFYIHWVRQAPGQGLEWMGWINPYSGSTNYPQKFQGRVTMTRDTSISTAYMDLSSLTSDDTAVYLCVRGRWFDFDYWGQGTTVTVSS
VL: QSALTQPPSVSGSPGQSITISCTGTSSDVGTYNFVSWYQQHPGKVPKLIIYDVSNRPSGVSIRFSGSKSGNTASLTISGLQAEDEADYYCSSFRSGSTYVFGTGTRVTVLG
notes: also called anti-CD73 antibody clone 3-16
Regarding B1, the binding result in assay [1] and in assay [2] was “binds” each time.

B2: anti-CD73 antibody clone 3-4 (antibody, V domains shown)
VH: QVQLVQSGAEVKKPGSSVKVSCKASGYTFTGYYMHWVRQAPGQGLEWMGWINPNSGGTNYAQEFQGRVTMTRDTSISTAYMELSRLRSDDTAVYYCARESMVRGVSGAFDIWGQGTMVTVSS
VL: QSALTQPASVSGSPGQSITISCTGTSSDVGSYNLVSWYQQHPGKAPKLMIYEGSKRPSGVSNRFSGSKSGNTASLTISGLQAEDEADYYCCSYAGSSGWDIGTGTKVTVLG
notes: also called CD73 #3-4; CR3-4
On to B2, for which the binding result in [1] and in assay [2] was “binds” in each case.

B3: anti-p95HER2 antibody clone R4-11 (antibody, human IgG1, kappa, V domains shown)
VH: QITLKESGPTLVKPTQTLTLTCTFSGFSLSTSGVGVGWIRQPPGKALEWLALIYWDDDKRYSPSLKSRLTITKDTSKNQVVLTMTNMDPVDTATYYCAHAHPFSGSYNFWGQGTLVTVSS
VL: DIVMTQSPDSLAVSLGERATINCKSSQSVLFSSNNKDYLAWYQQRPGQPPKLLIHWASTREPGVPDRFSGSGSGTDFTLTISSLQAEDVAVYYCLQSYSNPPTFGQGTKVEIKR
notes: also called p95HER2 #R4-11; #R4-11 mAb
With B3, the binding result in assay [3] was “no binding (tested: 100 nM)”.

B4: anti-CD73 antibody clone 3-1-28 (antibody, human IgG1, lambda, N297A, V domains shown)
VH: QVQLVQSGAEVKKPGSSVKVSCKASGGTFSSYAISWVRQAPGQGLEWMGRIIPILGIANYAQKFQGRVTITADKSTSTAYMELSSLRSEDTAVYYCARDSPVHYYGSGSYYRDAFDIWGQGTMVTVSS
VL: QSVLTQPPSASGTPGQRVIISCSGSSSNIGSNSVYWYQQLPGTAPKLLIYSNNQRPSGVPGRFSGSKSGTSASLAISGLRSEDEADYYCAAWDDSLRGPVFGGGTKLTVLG
notes: also called CD73 #3-1-28; parental #3-1-28
As to B4, in [4], the “IC50, inhibition of cell membrane-bound CD73 enzyme (AMP-Glo, MDA-MB-231 cells)” value was 0.49 nM. Further, the “IC50, inhibition of soluble CD73 enzyme (AMP-Glo, MDA-MB-231 cultured medium)” value (shortened to “IC50, inhibition of soluble CD73 enzyme”) in [5] was determined as 1.48 nM. Also, the binding result in [6] is listed as “no binding (tested: 100 nM)”. For the same molecule, the dissociation constant Kd in [7] came out at 1.04 nM.

B5: anti-CD73 #3-1-28-v1 (antibody, human IgG1, lambda, N297A, V domains shown)
VH: B4 VH
VL: QSVLTQPPSASGTPGQRVIISCSGSSSNIGSNSVYWYQQLPGTAPKLLIYANNERPSGVPGRFSGSKSGTSASLAISGLRSEDEADYYCAAWDDSLRGPVFGGGTKLTVLG
notes: engineered IgG1 constant region; also called #1919-003; anti-CD73 #3-1-28 (S51A Q54E)
For B5, in assay [4], the “IC50, inhibition of cell membrane-bound CD73 enzyme (AMP-Glo, MDA-MB-231 cells)” value turned out to be 0.213 nM. For the same molecule, the “IC50, inhibition of soluble CD73 enzyme” value in assay [5] was determined as 0.187 nM. The same molecule returned a Kd in [7] of 0.344 nM. In addition, the “fold improvement of binding affinity against parental #3-1-28” value (from here on “fold improvement of binding affinity”) in [8] is approximately 2 fold.

B6: anti-CD73 #3-1-28-v2 (antibody, human IgG1, lambda, N297A, V domains shown)
VH: B4 VH with S107D, S109H
VL: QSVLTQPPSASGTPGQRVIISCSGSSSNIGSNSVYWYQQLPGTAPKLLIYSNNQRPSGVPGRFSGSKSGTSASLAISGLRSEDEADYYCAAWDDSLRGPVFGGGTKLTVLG
notes: also called #1911-022; anti-CD73 #3-1-28 (S107D S109H)
Take B6: in assay [4], the “IC50, inhibition of cell membrane-bound CD73 enzyme (AMP-Glo, MDA-MB-231 cells)” value came out at 0.245 nM. In addition, the “IC50, inhibition of soluble CD73 enzyme” value in assay [5] was determined as 0.273 nM. The molecule also yielded an equilibrium dissociation constant (Kd) in assay [7] of 0.523 nM. In addition, in [8], the “fold improvement of binding affinity” value is approximately 2 fold.

B7: anti-CD73 #3-1-28-v3 (antibody, human IgG1, lambda, N297A, V domains shown)
VH: B4 VH with S107D, S109T, A114S
VL: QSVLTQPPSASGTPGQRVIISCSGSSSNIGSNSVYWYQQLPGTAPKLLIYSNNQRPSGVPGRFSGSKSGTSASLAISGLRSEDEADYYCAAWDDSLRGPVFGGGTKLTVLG
notes: also called #1911-030; anti-CD73 #3-1-28 (S107D S109T A114S)
With B7, in [5], the “IC50, inhibition of soluble CD73 enzyme” value was found to be 0.241 nM. In assay [7], this molecule yielded a Kd of 0.553 nM. In addition, in assay [8], the “fold improvement of binding affinity” value is approximately 2 fold.

B8: CR3-1-37 (antibody, IgG1, V domains shown)
VH: QVQLVQSGAEVKRPGSSVKVSCKASGGTFSSYAISWVRQAPGQGLEWMGGIIPIFGTANYAQKFQGRVTITADESTSTAYMELSSLRSEDTAVYYCARGVSYYYGMHVWGQGTTVTVSS
VL: SYVLTQPPSVSVTPGKTARIACGGNNLESKIVSWYQQKPGQAPVLVIFYDTDRPSGISERFSGSNSGNTATLTISRVEAGDEADYYCQVWDSNSDHVIFGGGTKLTVLG
notes: also called anti-CD73 antibody clone 3-1-37
As for B8, the binding result in assay [1] and in assay [9] was “binds” throughout.

One may read the Kd as the equilibrium constant for the complex coming apart.
